Five molecules from patent US20260092096A1 (35PHARMA, published 2026) can be followed below.

Experiment in all cases: cell-based or functional assay
The target in one experiment is T1, BMP-10 (UniProt O95393 317-424).
T1 sequence (looked up): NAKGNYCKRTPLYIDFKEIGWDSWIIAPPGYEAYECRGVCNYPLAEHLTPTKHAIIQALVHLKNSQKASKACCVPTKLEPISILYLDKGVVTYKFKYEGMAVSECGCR

The target of another experiment is T2, BMP-9 (UniProt Q9UK05 320-429).
T2 sequence (looked up): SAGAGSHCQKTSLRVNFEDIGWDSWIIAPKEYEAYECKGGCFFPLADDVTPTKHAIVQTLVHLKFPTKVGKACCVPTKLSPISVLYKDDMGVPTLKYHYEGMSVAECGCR

The next experiment has as its target T3, activin A (human, UniProt P08476 311-426).
T3 sequence (looked up): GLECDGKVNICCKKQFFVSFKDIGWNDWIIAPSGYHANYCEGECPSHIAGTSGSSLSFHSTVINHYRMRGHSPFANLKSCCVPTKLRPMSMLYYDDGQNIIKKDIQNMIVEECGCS

The target of another experiment is T4, activin B (UniProt P09529 293-407).
T4 sequence (looked up): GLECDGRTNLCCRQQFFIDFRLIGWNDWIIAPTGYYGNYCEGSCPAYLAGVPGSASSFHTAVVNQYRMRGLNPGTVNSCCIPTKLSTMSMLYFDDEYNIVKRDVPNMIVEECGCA

For a further experiment, the target named is T5, GDF-11 (UniProt O95390 299-407).
T5 sequence (looked up): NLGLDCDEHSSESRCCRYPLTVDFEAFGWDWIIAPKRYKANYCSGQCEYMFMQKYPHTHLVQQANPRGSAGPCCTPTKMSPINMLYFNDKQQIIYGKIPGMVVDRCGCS

The target of the next experiment is T6, GDF-8 (UniProt O14793 267-375).
T6 sequence (looked up): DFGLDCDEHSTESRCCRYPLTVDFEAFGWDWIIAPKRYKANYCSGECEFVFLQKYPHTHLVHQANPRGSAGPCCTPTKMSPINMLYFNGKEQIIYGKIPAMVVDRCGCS

For the molecule “P754 (hActRIIB T69Q, 14 aa linker, IgG1-DL) (Fc fusion)”, the IC50, BMP-reporter HepG2 cell-based neutralization assay with BMP-10 is 2.5 nM; with BMP-9 it was 3.5 nM. Moreover, the IC50, TGFβ-reporter HEK293 cell-based neutralization assay in the experiment with activin A turned out to be 1.5 nM; with activin B it was 2.1 nM; in the experiment with GDF-11, 1.6 nM.
For “P739 (hActRIIB G27E, 14 aa linker, IgG1-DL) (Fc fusion)”, the IC50, BMP-reporter HepG2 cell-based neutralization assay is 4 nM with BMP-10 and 1.1 nM in the experiment with BMP-9. In the experiment with BMP-9, this molecule returned a fold increase in neutralization potency relative to P75 of 2 fold. Besides, the IC50, TGFβ-reporter HEK293 cell-based neutralization assay in the experiment with activin A came out at 3.5 nM; with GDF-8, 2 nM; with activin B it was 6 nM; with GDF-11 it was 2.1 nM.
Take “P753 (hActRIIB T69H, 14 aa linker, IgG1-DL) (Fc fusion)”: the IC50, BMP-reporter HepG2 cell-based neutralization assay came to 2.9 nM with BMP-10 and 2.1 nM with BMP-9. Further, the IC50, TGFβ-reporter HEK293 cell-based neutralization assay worked out at 1.6 nM in the experiment with activin A, 1.4 nM with GDF-8, 2.4 nM with activin B and 1.5 nM in the experiment with GDF-11. Also, the fold increase in neutralization potency relative to P75 with activin A turned out to be 1.5 fold.

B1: P1372 (hActRIIB L33W, 14 aa linker, IgG1 YTE-DL) (Fc fusion)
chain: ETRECIYYNANWELERTNQSGLERCEGEQDKRWHCYASWRNSSGTIELVKKGCWLDDFNCYDRQECVATEENPQVYFCCCEGNFCNERFTHLPEAGGPEVTYEPPPTGGGGSGGGGSGGGGTHTCPPCPAPELLGGPSVFLFPPKPKDTLYITREPEVTCVVVDVSHEDPEVKFNWYVDGVEVHNAKTKPREEQYNSTYRVVSVLTVLHQDWLNGKEYKCKVSNKALPAPIEKTISKAKGQPREPQVYTLPPSRDELTKNQVSLTCLVKGFYPSDIAVEWESNGQPENNYKTTPPVLDSDGSFFLYSKLTVDKSRWQQGNVFSCSVMHEALHNHYTQKSLSLSPG
As to B1, the results for the “IC50, BMP-reporter HepG2 cell-based neutralization assay” value in the experiment with BMP-10 and in the experiment with BMP-9 were above 100 nM and above 1000 nM, respectively. Moreover, the “IC50, TGFβ-reporter HEK293 cell-based neutralization assay” value turned out to be 0.56 nM with activin A, 0.18 nM with GDF-8, 2 nM with activin B and 0.53 nM in the experiment with GDF-11.

B2: P1375 (hActRIIB L33W, 19 aa linker, IgG1 YTE-DL) (Fc fusion)
chain: ETRECIYYNANWELERTNQSGLERCEGEQDKRWHCYASWRNSSGTIELVKKGCWLDDFNCYDRQECVATEENPQVYFCCCEGNFCNERFTHLPEAGGPEVTYEPPPTGGGGSGGGGSGGGGSGGGGTHTCPPCPAPELLGGPSVFLFPPKPKDTLYITREPEVTCVVVDVSHEDPEVKFNWYVDGVEVHNAKTKPREEQYNSTYRVVSVLTVLHQDWLNGKEYKCKVSNKALPAPIEKTISKAKGQPREPQVYTLPPSRDELTKNQVSLTCLVKGFYPSDIAVEWESNGQPENNYKTTPPVLDSDGSFFLYSKLTVDKSRWQQGNVFSCSVMHEALHNHYTQKSLSLSPG
B2: the “IC50, BMP-reporter HepG2 cell-based neutralization assay” value with BMP-10 was above 100 nM; in the experiment with BMP-9 it was above 1000 nM. Moreover, the “IC50, TGFβ-reporter HEK293 cell-based neutralization assay” value turned out to be 0.53 nM with activin A, 0.33 nM in the experiment with GDF-8, 2 nM with activin B and 0.39 nM with GDF-11.
